Common to all, as to details: both partners purified
In experiment [1] the target is T1, FhuCB with FhuB Q636A (Escherichia coli, UniProt P07821 1-265; P06972 1-660, Q636A, red-tris-NTA 2nd generation dye on the His-tag).
T1 construct: FhuC, ATPase subunit, Escherichia coli; as in Dm2; FhuB, membrane subunit, Escherichia coli, 660 residues; Mutant made on the FhuCB-pET15b construct by direct mutagenesis; source: E. coli BL21(DE3) C43, purified (TALON, Superose 6 gel filtration) in LMNG; not shown: His-tag, N-terminal, kept; copies: 2 + 1
T1 sequence (looked up) 1: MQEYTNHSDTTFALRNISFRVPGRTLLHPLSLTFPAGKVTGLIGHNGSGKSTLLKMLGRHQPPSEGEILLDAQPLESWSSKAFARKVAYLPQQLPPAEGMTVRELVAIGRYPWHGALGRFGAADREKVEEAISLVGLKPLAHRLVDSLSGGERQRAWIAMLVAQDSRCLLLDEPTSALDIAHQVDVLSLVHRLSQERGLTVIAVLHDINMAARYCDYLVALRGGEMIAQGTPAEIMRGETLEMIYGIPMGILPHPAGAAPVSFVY
T1 sequence (looked up) 2: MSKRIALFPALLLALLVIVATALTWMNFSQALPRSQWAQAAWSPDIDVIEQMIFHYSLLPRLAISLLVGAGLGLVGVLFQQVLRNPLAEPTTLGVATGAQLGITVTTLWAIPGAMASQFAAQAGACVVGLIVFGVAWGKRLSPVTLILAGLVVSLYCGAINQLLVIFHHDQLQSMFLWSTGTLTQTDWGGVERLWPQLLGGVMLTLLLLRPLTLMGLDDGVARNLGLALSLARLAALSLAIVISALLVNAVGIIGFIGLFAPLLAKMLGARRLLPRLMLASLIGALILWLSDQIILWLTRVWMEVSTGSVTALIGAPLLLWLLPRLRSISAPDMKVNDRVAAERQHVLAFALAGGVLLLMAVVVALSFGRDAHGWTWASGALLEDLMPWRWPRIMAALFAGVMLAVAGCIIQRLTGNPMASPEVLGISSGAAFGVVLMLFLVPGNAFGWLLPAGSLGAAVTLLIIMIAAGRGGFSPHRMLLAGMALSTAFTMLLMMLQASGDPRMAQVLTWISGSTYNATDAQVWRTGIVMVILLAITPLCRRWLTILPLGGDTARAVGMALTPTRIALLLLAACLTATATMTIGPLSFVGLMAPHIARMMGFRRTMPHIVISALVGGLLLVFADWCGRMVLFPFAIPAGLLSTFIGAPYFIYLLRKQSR
The experiment in a line: MST; 40 nM FhuCB (wild type or FhuB mutant) in detergent, His-tag labelled with red-tris-NTA 2nd generation dye; serial dilution of 1.6 μM FhuD with substrate ferrichrome; with ATP-Mg; Monolith NT.115pico, 20% LED power, medium MST power.

Experiment [2] addresses T2, FhuCB with FhuB S57A (Escherichia coli, UniProt P07821 1-265; P06972 1-660, S57A, red-tris-NTA 2nd generation dye on the His-tag).
T2 construct: FhuC, ATPase subunit, Escherichia coli; as in Dm2; FhuB, membrane subunit, Escherichia coli, 660 residues; Mutant made on the FhuCB-pET15b construct by direct mutagenesis; source: E. coli BL21(DE3) C43, purified (TALON, Superose 6 gel filtration) in LMNG; not shown: His-tag, N-terminal, kept; copies: 2 + 1
T2 sequence (looked up) 1: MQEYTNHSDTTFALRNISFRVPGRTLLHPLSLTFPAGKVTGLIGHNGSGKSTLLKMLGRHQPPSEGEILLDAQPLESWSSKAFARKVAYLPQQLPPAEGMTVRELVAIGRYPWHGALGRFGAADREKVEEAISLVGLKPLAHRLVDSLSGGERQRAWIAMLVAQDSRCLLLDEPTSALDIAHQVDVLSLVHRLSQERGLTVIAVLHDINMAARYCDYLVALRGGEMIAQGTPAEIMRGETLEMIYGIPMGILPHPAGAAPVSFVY
T2 sequence (looked up) 2: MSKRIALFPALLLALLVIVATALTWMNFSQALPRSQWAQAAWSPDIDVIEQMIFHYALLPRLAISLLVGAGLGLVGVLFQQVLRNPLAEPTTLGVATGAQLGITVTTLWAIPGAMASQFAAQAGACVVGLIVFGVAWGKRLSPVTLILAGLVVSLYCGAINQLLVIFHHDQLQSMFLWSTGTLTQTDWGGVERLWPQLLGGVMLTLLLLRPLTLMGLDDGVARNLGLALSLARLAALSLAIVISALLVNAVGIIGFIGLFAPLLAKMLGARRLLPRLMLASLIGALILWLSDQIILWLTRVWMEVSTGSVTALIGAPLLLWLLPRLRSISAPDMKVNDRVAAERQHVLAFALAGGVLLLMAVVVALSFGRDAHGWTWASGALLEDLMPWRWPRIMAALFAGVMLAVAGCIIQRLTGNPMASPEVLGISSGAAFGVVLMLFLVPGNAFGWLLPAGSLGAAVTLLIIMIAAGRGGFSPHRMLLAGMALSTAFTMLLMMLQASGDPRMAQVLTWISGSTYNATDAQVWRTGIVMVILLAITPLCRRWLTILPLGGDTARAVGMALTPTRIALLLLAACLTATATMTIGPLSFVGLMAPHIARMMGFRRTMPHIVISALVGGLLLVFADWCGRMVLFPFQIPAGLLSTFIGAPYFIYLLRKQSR
The experiment is described as above.

For experiment [3], the target named is T3, FhuCB wild-type (Escherichia coli, UniProt P07821 1-265; P06972 1-660, red-tris-NTA 2nd generation dye on the His-tag).
T3 construct: FhuC, ATPase subunit, Escherichia coli; whole operon cloned from the genome, FhuD gene deleted; thrombin site after the His-tag; FhuB, membrane subunit, Escherichia coli, 660 residues; also called FhuCB subcomplex; source: E. coli BL21(DE3) C43, purified (TALON, Superose 6 gel filtration) in LMNG; not shown: His-tag, N-terminal, kept; copies: 2 + 1
T3 sequence (looked up) 1: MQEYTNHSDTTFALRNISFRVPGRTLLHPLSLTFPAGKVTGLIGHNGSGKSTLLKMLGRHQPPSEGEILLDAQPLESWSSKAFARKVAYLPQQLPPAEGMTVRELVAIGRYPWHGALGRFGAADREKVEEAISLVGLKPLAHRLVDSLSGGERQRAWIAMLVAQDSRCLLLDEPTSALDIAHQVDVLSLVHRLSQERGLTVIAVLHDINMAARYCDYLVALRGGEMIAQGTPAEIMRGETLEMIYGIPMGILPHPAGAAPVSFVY
T3 sequence (looked up) 2: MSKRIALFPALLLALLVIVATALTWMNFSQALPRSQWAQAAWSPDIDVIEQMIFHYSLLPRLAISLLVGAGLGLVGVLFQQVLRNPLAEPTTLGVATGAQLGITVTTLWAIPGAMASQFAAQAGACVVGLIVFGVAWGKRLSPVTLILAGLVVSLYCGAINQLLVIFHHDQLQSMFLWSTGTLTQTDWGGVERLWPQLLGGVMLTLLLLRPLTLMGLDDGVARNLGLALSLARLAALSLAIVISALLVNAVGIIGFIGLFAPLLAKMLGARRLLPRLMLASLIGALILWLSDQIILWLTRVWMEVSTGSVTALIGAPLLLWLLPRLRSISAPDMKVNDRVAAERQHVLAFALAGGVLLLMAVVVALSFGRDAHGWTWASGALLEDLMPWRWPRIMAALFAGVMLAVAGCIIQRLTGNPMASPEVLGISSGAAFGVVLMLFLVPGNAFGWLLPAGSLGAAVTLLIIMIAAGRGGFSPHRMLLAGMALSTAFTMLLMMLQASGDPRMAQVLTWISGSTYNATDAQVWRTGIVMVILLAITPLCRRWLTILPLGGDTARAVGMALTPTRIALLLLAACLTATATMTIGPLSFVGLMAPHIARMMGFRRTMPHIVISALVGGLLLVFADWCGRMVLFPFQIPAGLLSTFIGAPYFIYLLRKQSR
The experiment in a line: MST; 40 nM FhuCB in detergent, His-tag labelled with red-tris-NTA 2nd generation dye; serial dilution of 30 μM FhuD without substrate; with ATP-MgCl2; Monolith NT.115pico, 20% LED power, medium MST power.

What is called Kd is the constant that tells how readily two partners part at equilibrium. A lower Kd goes with tighter binding.

B1: FhuD (natural protein, Escherichia coli)
chain: AAIDPNRIVALEWLPVELLLALGIVPYGVADTINYRLWVSEPPLPDSVIDVGLRTEPNLELLTEMKPSFMVWSAGYGPSPEMLARIAPGRGFNFSDGKQPLAMARKSLTEMADLLNLQSAAETHLAQYEDFIRSMKPRFVKRGARPLLLTTLIDPRHMLVFGPNSLFQEILDEYGIPNAWQGETNFWGSTAVSIDRLAAYKDVDVLCFDHDNSKDMDALMATPLWQAMPFVRAGRFQRVPAVWFYGATLSAMHFVRVLDNAIGGKA
notes: In 'FhuD-ferrichrome' the protein was loaded with the small molecule ferrichrome; also called FhuD-ferrichrome (when loaded with ferrichrome)
On to B1, for which the Kd in experiment [1] worked out at 90.2 nM; in experiment [2], 88.4 nM; in experiment [3], 270 nM.

Source of the values: article PMC8660799, “Cryo-EM reveals unique structural features of the FhuCDB Escherichia coli ferrichrome importer” (Communications Biology, 2021).
